Test results published in the supplement of paper PMC12855868.

B1: library; numbered along this chain (parent)
chain: MAAAGGARLLRAASAVLGGPAGRWLHHAGSRAGSSGLLRNRGPGGSAEASRSLSVSARARSSSEDKITVHFINRDGETLTTKGKVGDSLLDVVVENNLDIDGFGACEGTLACSTCHLIFEDHIYEKLDAITDEENDMLDLAYGLTDRSRLGCQICLTKSMDNMTVRVPETVADARQSIDVGKTS

Variants of: B1
Test: scaled log2 fold change in cell abundance, elesclomol vs control (0 = silent mean, 1 = nonsense mean) (scaled log2 ratio); higher = higher viability under elesclomol (loss of FDX1 cuproptosis function)
Conditions: glucose 10 mM
Procedure: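 Deep mutational scan of full-length human FDX1: a pooled saturation-mutagenesis ORF library (every residue 2-184 mutated to all 19 amino acids plus stop, and silent codons where available) was expressed by lentivirus in FDX1-knockout ABC1 (14 days) or HEK293T (11 days) cells grown with elesclomol (ES) or DMSO control. Variant abundance came from ORF sequencing. The log2 fold change (ES vs control, mean of duplicates) was centred on the silent-variant mean (0) and scaled to the nonsense-variant mean (1). Higher values mean greater viability under ES, i.e. loss of FDX1 function in cuproptosis.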

[1] = with ABC1 FDX1 KO, elesclomol 5 nM, 14 days
[2] = with HEK293T FDX1 KO, elesclomol 40 nM, 11 days
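Further: variant abundance is its share of total variant reads in each endpoint sample, from next-generation sequencing of the integrated ORF PCR-amplified out of genomic DNA.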

| Variant | scaled log2 fold change [1] | scaled log2 fold change [2] |
| --- | --- | --- |
| R41P | -0.0791 | -0.655 |
| R41A | 0.281 | 0.851 |
| R41T | 0.311 | 0.274 |
| R41V | -0.196 | -0.0931 |
| R41S | -0.22 | 0.473 |
| R41M | 0.173 | 0.0788 |
| G42V | 0.365 | -0.32 |
| G42M | 0.0351 | 0.622 |
| G42R | 0.1 | -0.362 |
| G42D | -0.168 | 0.162 |
| G42N | 0.133 | -0.235 |
| G42F | -0.0705 | -0.21 |
| G42H | 0.257 | -0.419 |
| G42W | 0.29 | 1 |
| G42I | 0.277 | 0.513 |
| G42K | 0.0974 | 0.00685 |
| G42C | 0.12 | 0.316 |
| G42Y | 0.307 | – |
| G42L | 0.249 | 0.513 |
| G42S | 0.232 | -0.298 |
| G42Q | 0.242 | -0.336 |
| G42A | -0.139 | 0.0969 |
| G42E | -0.302 | 0.67 |
| G42T | 0.268 | 0.377 |

| Variant | scaled log2 fold change [1] | scaled log2 fold change [2] |
| --- | --- | --- |
| G42P | 0.28 | -0.219 |
| S35E | -0.0617 | -0.644 |
| S35F | -0.398 | 0.53 |
| S35A | -0.0215 | 0.327 |
| S35V | 0.123 | -0.55 |
| S35Q | 0.169 | 0.0163 |
| S35N | 0.181 | -0.653 |
| S35D | 0.267 | 1.13 |
| S35Y | -0.531 | -0.958 |
| S35M | 0.309 | 0.0177 |
| S35G | -0.212 | -1.33 |
| S35P | -0.144 | – |
| S35W | -0.0127 | -0.259 |
| S35I | 0.293 | 0.132 |
| S35L | -0.141 | -0.673 |
| S35C | 0.0457 | 0.128 |
| S35T | -0.263 | 0.526 |
| S35K | 0.175 | 0.17 |
| S35R | -0.768 | -0.669 |
| S35H | -0.513 | 1.67 |
| N40V | 0.408 | -0.147 |
| N40W | -0.166 | -0.235 |
| N40M | -0.291 | 0.304 |
| N40K | -0.0431 | 0.421 |

| Variant | scaled log2 fold change [1] | scaled log2 fold change [2] |
| --- | --- | --- |
| N40P | -0.752 | 0.374 |
| N40C | -0.214 | 1.09 |
| N40T | -0.748 | -0.708 |
| N40R | 0.387 | 0.0477 |
| N40Q | -0.307 | 0.243 |
| N40D | -0.359 | -0.577 |
| N40E | 0.118 | – |
| N40L | -0.507 | 0.239 |
| N40I | 0.554 | -0.704 |
| N40F | -0.01 | 0.266 |
| N40S | 0.213 | 0.0876 |
| N40Y | -0.412 | -0.381 |
| S34F | 0.0028 | -0.301 |
| S34I | -0.128 | -0.488 |
| S34Y | 0.029 | -0.188 |
| S34M | -0.108 | 0.216 |
| S34L | 0.0704 | -0.513 |
| S34T | 0.125 | -0.0688 |
| S34R | -0.433 | 0.662 |
| S34C | 0.0357 | 0.188 |
| S34W | 0.0117 | 0.853 |
| S34V | 0.0515 | -1.09 |
| S34Q | -0.0397 | -0.168 |
| S34A | -0.221 | -0.449 |

| Variant | scaled log2 fold change [1] | scaled log2 fold change [2] |
| --- | --- | --- |
| S34N | 0.0794 | 0.424 |
| S34P | -0.325 | -0.116 |
| S34K | 0.146 | -0.467 |
| S34E | -0.124 | -0.639 |
| S34G | 0.285 | -0.277 |
| S34H | 0.251 | -0.957 |
| S34D | 0.0928 | -0.389 |
| P43T | 0.0182 | -0.259 |
| P43H | 0.442 | -0.548 |
| P43Q | 0.274 | -0.32 |
| P43D | -0.289 | -0.259 |
| P43V | 0.149 | 0.888 |
| P43M | 0.182 | 0.0394 |
| P43G | 0.283 | 0.825 |
| P43L | 0.34 | 1.08 |
| P43C | -0.0655 | 0.841 |
| P43R | 0.273 | 0.259 |
| P43E | 0.224 | 0.236 |
| P43A | -0.0498 | 1.29 |
| P43S | -0.443 | -0.3 |
| P43W | -0.19 | 0.313 |
| P43Y | 0.138 | 0.846 |
| P43F | -0.0201 | 0.822 |
| P43N | 0.14 | 1.24 |

| Variant | scaled log2 fold change [1] | scaled log2 fold change [2] |
| --- | --- | --- |
| P43I | 0.392 | -0.356 |
| P43K | 0.0332 | 0.445 |
| G33N | 0.0785 | 0.48 |
| G33Q | -0.173 | -0.043 |
| G33M | 0.0509 | -0.453 |
| G33H | 0.23 | 0.469 |
| G33A | 0.0776 | 0.0796 |
| G33W | -0.0437 | 0.197 |
| G33E | 0.197 | -0.759 |
| G33K | 0.0454 | 0.247 |
| G33C | -0.0719 | 0.194 |
| G33L | -0.121 | -1.21 |
| G33P | -0.0501 | 0.139 |
| G33F | 0.0743 | 0.637 |
| G33V | 0.127 | 0.731 |
| G33I | 0.161 | 0.713 |
| G33Y | 0.0588 | 0.657 |
| G33T | 0.154 | 0.176 |
| G33S | 0.208 | -0.0845 |
| G33R | -0.26 | -0.362 |
